From publication PMC11745410

Target: TAX9-loaded HLA-A*02:01/β2m
Experiment: SPR

Substance	fold decrease in KD against TAPBPR^WT (so in the source)
TAPBPR^∆ALAS (A29-S32 deletion) (from UniProt Q9BX59 22-405) (natural protein)	3 fold
TAPBPR^∆G24-R36 (G24-R36 deletion) (from UniProt Q9BX59 22-405) (natural protein)	3 fold
